Results: paper PMC2756588

T1: Abp1, P15891
T1 sequence (P15891 535-592, looked up): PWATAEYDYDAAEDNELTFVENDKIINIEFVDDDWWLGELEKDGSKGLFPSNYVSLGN

T2: Bbc1, P47068
T2 sequence (P47068 1-78, looked up): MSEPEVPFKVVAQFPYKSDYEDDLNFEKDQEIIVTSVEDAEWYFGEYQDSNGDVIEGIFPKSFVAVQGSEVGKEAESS

T3: Boi1, P38041
T3 sequence (P38041 1-86, looked up): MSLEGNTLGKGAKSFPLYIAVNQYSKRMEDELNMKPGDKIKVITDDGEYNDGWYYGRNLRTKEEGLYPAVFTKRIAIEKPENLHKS

T4: Boi2, P39969
T4 sequence (P39969 32-116, looked up): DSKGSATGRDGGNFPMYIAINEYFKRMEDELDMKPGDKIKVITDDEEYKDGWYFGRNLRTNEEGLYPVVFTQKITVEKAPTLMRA

T5: Bud14, P27637
T5 sequence (P27637 247-328, looked up): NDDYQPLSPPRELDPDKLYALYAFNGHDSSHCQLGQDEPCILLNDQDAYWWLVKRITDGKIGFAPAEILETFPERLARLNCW

T6: Bzz1-1, P38822
T6 sequence (P38822 478-572, looked up): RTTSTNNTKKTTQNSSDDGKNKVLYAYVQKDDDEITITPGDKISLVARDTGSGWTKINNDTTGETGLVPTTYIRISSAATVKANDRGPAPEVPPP

T7: Bzz1-2, P38822
T7 sequence (P38822 568-633, looked up): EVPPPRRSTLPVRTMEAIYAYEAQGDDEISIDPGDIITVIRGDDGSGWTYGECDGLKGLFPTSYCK

T8: Cdc25, P04821
T8 sequence (P04821 50-136, looked up): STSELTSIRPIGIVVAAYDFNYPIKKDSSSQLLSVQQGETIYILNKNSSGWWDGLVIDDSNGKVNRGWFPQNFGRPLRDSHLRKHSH

T9: Cyk3, Q07533
T9 sequence (Q07533 1-83, looked up): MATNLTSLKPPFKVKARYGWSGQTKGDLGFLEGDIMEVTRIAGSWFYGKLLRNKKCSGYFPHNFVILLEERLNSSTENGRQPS

T10: Fus1, P11710
T10 sequence (P11710 432-512, looked up): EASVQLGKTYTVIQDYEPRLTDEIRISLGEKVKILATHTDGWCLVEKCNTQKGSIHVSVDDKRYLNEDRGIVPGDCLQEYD

T11: Hof1, Q05080
T11 sequence (Q05080 590-669, looked up): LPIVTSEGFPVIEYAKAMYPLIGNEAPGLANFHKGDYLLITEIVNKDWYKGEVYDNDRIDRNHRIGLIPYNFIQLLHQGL

T12: Hse1, P38753
T12 sequence (P38753 208-285, looked up): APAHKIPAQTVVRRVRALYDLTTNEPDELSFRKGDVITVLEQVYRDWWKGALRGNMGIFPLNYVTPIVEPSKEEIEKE

T13: Lsb1, P53281
T13 sequence (P53281 45-122, looked up): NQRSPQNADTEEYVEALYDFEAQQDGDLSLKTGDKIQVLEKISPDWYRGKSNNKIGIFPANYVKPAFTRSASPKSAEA

T14: Lsb3, P43603
T14 sequence (P43603 385-451, looked up): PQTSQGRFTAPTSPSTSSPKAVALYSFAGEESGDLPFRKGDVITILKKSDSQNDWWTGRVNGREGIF

T15: Lsb4, P32793
T15 sequence (P32793 402-468, looked up): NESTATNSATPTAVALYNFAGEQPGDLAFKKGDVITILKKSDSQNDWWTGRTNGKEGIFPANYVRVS

T16: Myo5, Q04439
T16 sequence (Q04439 1072-1160, looked up): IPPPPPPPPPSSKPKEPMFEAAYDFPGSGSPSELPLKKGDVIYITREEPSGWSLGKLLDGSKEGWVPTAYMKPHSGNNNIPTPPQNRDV

T17: Nbp2, Q12163
T17 sequence (Q12163 103-180, looked up): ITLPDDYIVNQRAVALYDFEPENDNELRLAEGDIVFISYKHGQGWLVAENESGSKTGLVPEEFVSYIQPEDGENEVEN

T18: Pex13, P80667
T18 sequence (P80667 295-386, looked up): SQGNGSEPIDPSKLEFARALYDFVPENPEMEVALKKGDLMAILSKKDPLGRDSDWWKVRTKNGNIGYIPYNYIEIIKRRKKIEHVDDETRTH

T19: Pin3, Q06449
T19 sequence (Q06449 53-122, looked up): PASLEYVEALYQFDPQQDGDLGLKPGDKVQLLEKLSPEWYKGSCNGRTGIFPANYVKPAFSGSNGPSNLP

T20: Sla1-2, P32790
T20 sequence (P32790 60-140, looked up): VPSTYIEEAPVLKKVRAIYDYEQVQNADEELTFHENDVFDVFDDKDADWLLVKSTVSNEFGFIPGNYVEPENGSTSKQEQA

T21: Sla1-3, P32790
T21 sequence (P32790 344-424, looked up): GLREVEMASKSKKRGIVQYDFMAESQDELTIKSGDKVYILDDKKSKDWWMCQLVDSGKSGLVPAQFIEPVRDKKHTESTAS


Legend:
Experiment in all cases: SPOT array
Abp1, P15891 = target: T1, Abp1, P15891; conditions: median of control spots 935
Bbc1, P47068 = target: T2, Bbc1, P47068; conditions: median of control spots 796
Bem1-1, P29366 = conditions: median of control spots 4282
Bem1-1, P29366, sequence (P29366 55-141): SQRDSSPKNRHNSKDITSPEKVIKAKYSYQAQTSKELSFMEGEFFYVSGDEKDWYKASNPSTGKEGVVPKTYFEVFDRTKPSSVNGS

Bem1-2, P29366 = conditions: median of control spots 4347
Bem1-2, P29366, sequence (P29366 139-227): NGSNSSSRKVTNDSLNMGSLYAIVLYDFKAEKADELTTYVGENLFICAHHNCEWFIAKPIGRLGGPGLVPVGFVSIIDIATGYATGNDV

Boi1, P38041 = target: T3, Boi1, P38041; conditions: median of control spots 1162
Boi2, P39969 = target: T4, Boi2, P39969; conditions: median of control spots 1161
Bud14, P27637 = target: T5, Bud14, P27637; conditions: median of control spots 956
Bzz1-1, P38822 = target: T6, Bzz1-1, P38822; conditions: median of control spots 4446
Bzz1-2, P38822 = target: T7, Bzz1-2, P38822; conditions: median of control spots 4538
Cdc25, P04821 = target: T8, Cdc25, P04821; conditions: median of control spots 969
Cyk3, Q07533 = target: T9, Cyk3, Q07533; conditions: median of control spots 1451
Fus1, P11710 = target: T10, Fus1, P11710; conditions: median of control spots 1200
GST = conditions: median of control spots 978
Hof1, Q05080 = target: T11, Hof1, Q05080; conditions: median of control spots 4086
Hse1, P38753 = target: T12, Hse1, P38753; conditions: median of control spots 1727
Lsb1, P53281 = target: T13, Lsb1, P53281; conditions: median of control spots 388
Lsb3, P43603 = target: T14, Lsb3, P43603; conditions: median of control spots 406
Lsb4, P32793 = target: T15, Lsb4, P32793; conditions: median of control spots 397
Myo3, P36006 = conditions: median of control spots 468
Myo5, Q04439 = target: T16, Myo5, Q04439; conditions: median of control spots 471
Nbp2, Q12163 = target: T17, Nbp2, Q12163; conditions: median of control spots 357
Pex13, P80667 = target: T18, Pex13, P80667; conditions: median of control spots 1341
Pin3, Q06449 = target: T19, Pin3, Q06449; conditions: median of control spots 2171
Rvs167, P39743 = conditions: median of control spots 2707
Rvs167, P39743, sequence (P39743 419-482): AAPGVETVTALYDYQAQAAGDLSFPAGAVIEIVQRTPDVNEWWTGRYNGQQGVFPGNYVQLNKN

Sho1, P40073 = conditions: median of control spots 1148
Sho1, P40073, sequence (P40073 287-367): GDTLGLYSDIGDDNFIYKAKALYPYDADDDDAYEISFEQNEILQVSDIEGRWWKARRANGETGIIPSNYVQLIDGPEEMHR

Sla1-2, P32790 = target: T20, Sla1-2, P32790; conditions: median of control spots 712
Sla1-3, P32790 = target: T21, Sla1-3, P32790; conditions: median of control spots 5475

Row | Binder | SPOT intensity (Abp1, P15891) | SPOT intensity (Bbc1, P47068) | SPOT intensity (Bem1-1, P29366) | SPOT intensity (Bem1-2, P29366) | SPOT intensity (Boi1, P38041) | SPOT intensity (Boi2, P39969) | SPOT intensity (Bud14, P27637) | SPOT intensity (Bzz1-1, P38822) | SPOT intensity (Bzz1-2, P38822) | SPOT intensity (Cdc25, P04821) | SPOT intensity (Cyk3, Q07533) | SPOT intensity (Fus1, P11710) | SPOT intensity (GST) | SPOT intensity (Hof1, Q05080) | SPOT intensity (Hse1, P38753) | SPOT intensity (Lsb1, P53281) | SPOT intensity (Lsb3, P43603) | SPOT intensity (Lsb4, P32793) | SPOT intensity (Myo3, P36006) | SPOT intensity (Myo5, Q04439) | also measured
1 | AAAPKHAPPPVPNET | 0 | 0 | 0 | 84 | 0 | 0 | 0 | 0 | 0 | 0 | 0 | 0 | 0 | 0 | 13 | 0 | 0 | 0 | 557 | 376 | SPOT intensity (Nbp2, Q12163): 0; SPOT intensity (Pex13, P80667): 0; SPOT intensity (Pin3, Q06449): 0; SPOT intensity (Rvs167, P39743): 0; SPOT intensity (Sho1, P40073): 0; SPOT intensity (Sla1-2, P32790): 0; SPOT intensity (Sla1-3, P32790): 0
2 | VQKRKLPLPGSIASA | 157 | 23 | 0 | 1 | 0 | 0 | 0 | 0 | 0 | 18 | 0 | 0 | 0 | 0 | 0 | 0 | 1 | 13 | 0 | 0 | SPOT intensity (Nbp2, Q12163): 1; SPOT intensity (Pex13, P80667): 0; SPOT intensity (Pin3, Q06449): 0; SPOT intensity (Rvs167, P39743): 0; SPOT intensity (Sho1, P40073): 11; SPOT intensity (Sla1-2, P32790): 0; SPOT intensity (Sla1-3, P32790): 4
3 | STKKPRPPVKSKPKH | 397 | 3 | 0 | 2 | 0 | 1 | 3 | 1 | 5 | 0 | 3 | 1 | 2 | 0 | 1 | 0 | 0 | 0 | 0 | 0 | SPOT intensity (Nbp2, Q12163): 0; SPOT intensity (Pex13, P80667): 0; SPOT intensity (Pin3, Q06449): 0; SPOT intensity (Rvs167, P39743): 12; SPOT intensity (Sho1, P40073): 12; SPOT intensity (Sla1-2, P32790): 0; SPOT intensity (Sla1-3, P32790): 5
4 | FPGKKSPRLPHRNKK | 175 | 13 | 0 | 0 | 7 | 0 | 22 | 0 | 5 | 35 | 3 | 0 | 1 | 1 | 8 | 5 | 155 | 225 | 0 | 0 | SPOT intensity (Nbp2, Q12163): 0; SPOT intensity (Pex13, P80667): 16; SPOT intensity (Pin3, Q06449): 0; SPOT intensity (Rvs167, P39743): 314; SPOT intensity (Sho1, P40073): 84; SPOT intensity (Sla1-2, P32790): 0; SPOT intensity (Sla1-3, P32790): 12
